Values quoted from earlier work as cited in publication PMC4407497.

Legend:
IL-22R1 (Homo sapiens) = IL-22R1 (Homo sapiens) (UniProt Q8N6P7)
IL-22BP (Homo sapiens) = IL-22BP (Homo sapiens) (UniProt Q969J5)
UniProt Q969J5, sequence (Q969J5 22-263): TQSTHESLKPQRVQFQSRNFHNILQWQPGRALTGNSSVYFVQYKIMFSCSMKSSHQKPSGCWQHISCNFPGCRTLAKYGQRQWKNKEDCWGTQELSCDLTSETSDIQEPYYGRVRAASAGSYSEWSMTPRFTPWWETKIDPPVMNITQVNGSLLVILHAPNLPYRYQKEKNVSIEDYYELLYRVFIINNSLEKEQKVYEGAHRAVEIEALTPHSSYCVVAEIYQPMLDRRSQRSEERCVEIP

UniProt Q8N6P7, sequence (Q8N6P7 16-228): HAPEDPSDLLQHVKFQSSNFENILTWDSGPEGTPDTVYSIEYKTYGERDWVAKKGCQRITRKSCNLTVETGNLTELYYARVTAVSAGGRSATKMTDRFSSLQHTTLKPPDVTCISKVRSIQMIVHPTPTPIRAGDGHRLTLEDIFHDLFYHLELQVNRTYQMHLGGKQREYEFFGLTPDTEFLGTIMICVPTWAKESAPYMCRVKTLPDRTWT

For IL-22 (from UniProt Q9GZX6), the Kd (IL-22R1 (Homo sapiens)) is listed as 20 nM and the Kd (IL-22BP (Homo sapiens)) is listed as 0.001 nM.
